Measured values as given in IntAct's records for PubMed 17412836.

B1: Protein Nef (Human immunodeficiency virus type 1 group M subtype B (isolate Lai)), Q9QPN3 (parent)
chain: MGGKWSKSSVVGWPAVRERMRRAEPAADGVGAVSRDLEKHGAITSSNTAATNADCAWLEAQEEEEVGFPVTPQVPLRPMTYKAAVDLSHFLKEKGGLEGLIHSQRRQDILDLWIYHTQGYFPDWQNYTPEPGVRYPLTFGWCYKLVPVEPDKVEEANKGENTRLLHPVSLHGMDDPEREVLEWRFDSRLAFHHVARELHPEY
partner: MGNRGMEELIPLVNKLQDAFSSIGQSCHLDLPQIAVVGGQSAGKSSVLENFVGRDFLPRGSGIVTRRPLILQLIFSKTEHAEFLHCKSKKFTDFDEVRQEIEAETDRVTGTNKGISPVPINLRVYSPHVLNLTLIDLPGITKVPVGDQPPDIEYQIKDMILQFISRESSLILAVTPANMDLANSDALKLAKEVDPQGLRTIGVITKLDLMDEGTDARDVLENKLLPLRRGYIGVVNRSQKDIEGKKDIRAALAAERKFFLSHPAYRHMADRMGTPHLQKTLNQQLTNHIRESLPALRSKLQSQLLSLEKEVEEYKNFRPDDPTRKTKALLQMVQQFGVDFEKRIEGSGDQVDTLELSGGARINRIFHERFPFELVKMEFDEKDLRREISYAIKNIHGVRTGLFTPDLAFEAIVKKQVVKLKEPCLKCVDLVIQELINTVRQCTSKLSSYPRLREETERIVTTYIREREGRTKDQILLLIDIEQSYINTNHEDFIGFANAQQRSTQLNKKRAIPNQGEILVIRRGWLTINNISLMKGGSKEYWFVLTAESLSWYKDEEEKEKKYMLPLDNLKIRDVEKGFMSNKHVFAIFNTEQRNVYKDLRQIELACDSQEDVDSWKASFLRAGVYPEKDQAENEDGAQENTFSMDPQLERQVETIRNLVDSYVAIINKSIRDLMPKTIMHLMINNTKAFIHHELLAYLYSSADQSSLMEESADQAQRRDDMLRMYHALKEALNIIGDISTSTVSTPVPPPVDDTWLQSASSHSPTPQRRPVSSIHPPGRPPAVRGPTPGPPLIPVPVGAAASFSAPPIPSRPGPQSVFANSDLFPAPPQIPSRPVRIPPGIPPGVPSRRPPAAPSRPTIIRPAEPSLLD

Variants of: B1
Details: with dyn2_human DNM2, P50570

**Q.** For L112A, which “effect of a mutation on the interaction” value is on record?
**A.** decreasing interaction strength

**Q.** Which “effect of a mutation on the interaction” value does the source give for D123A here?
**A.** decreasing interaction strength

**Q.** Which “effect of a mutation on the interaction” value does the source give for F121A;D123A here?
**A.** disrupting interaction strength

**Q.** With G2A;G3A as the variant, how does the “effect of a mutation on the interaction” value read?
**A.** disrupting interaction strength

**Q.** How did the “effect of a mutation on the interaction” value turn out when F121A was run?
**A.** decreasing interaction strength
